According to paper PMC7432810:

Tests used:
[1] = biological target: Cx36-ECFP (Rattus norvegicus) (UniProt O70610); experiment: FRET or BRET; acceptor photobleaching FRET in double transfected Neuro 2a cells fixed with 4% paraformaldehyde; ECFP donor, DsRed acceptor; threshold 1.7% (10 nm); cells untreated or treated before with 2 uM ionomycin or 24 uM BAPTA-AM (10 min), 5 ug/mL BFA (6 h) or 50 uM Dynasore (1 h)
[2] = biological target: Cx36-DsRed (Rattus norvegicus) (UniProt O70610); experiment: as above

| Substance | FRET efficiency [1] | FRET efficiency (cells treated with 2 uM ionomycin) [1] | FRET efficiency (cells treated with BFA for 6 h) [1] | FRET efficiency (no treatment, control of the Dynasore experiment) [1] | FRET efficiency [2] |
| --- | --- | --- | --- | --- | --- |
| Cav-1-DsRed (natural protein) | 5.73 | 7.33 | 3.76 | 4 |  |
| Cav-1-ECFP (natural protein) |  |  |  |  | 5.94 |
